The record followed here is the DeepSol protein solubility set.

The nature of this data set: soluble on expression in E. coli; label from the status in PepcDB or PDB records.
As to “GPGPSRPSASWQNSVSERPPYSYMAMIQFAINSTERKRMTLKDIYTWIEDHFPYFKHIAKPGWKNSIRHNLSLHDMFVRETSANGKVSFWTIHPSANRYLTLDQVFKPLDPGSPQLPEHLESQQKRPNPELRRNMTIKTELP”, the “soluble on expression in E. coli” value was “soluble”.
For “VFALSNNLNRVNACMDGFLARIRSHVDAHAPELRSLFDTMAAEARFARDWLSEDLARLPVGAALLEVGGGVLLLSCQLAAEGFDITAIEPTGEGFGKFRQLGDIVLELAAARPTIAPCKAEDFISEKRFDFAFSLNVMEHIDLPDEAVRRVSEVLKPGASYHFLCPNYVFPYEPHFNIPTFFTKELTCRVMRHRIEGNTGMDDPKGVWRSLNWITVPKVKRFAAKDATLTLRFHRAMLVWMLERALTDKEFAGRRAQWMVAAIRSAVKLRVHHLAGYVPATLQPIMDVRLTKR” the value was “not soluble”.
Consider “PTSLEKLPSADVKGQDLYKTQPPRSDAQGGKAYLKWICITCGHIYDEALGDEAEGFTPGTRFEDIPDDWCCPDCGATKEDYVLYEEK”, for which the “soluble on expression in E. coli” value is “soluble”.
The value for “MSLGIATFAVVDLETTGNQLDYDEIIQIGITFVRQNQVIDTYHSMIRTDLEIPPFIQALTSIEEEMLVQAPYFNEVADDIYQLIKDCVFVAHNISFDLNFIKKAFEKCNIQFKPKRVMDTLELFKIAFPTDKSYQLSALAESHHIPLNNAHRADEDATTTAKLMIKAFEKFEQLHEGHHHHHH” was “soluble”.
Turning to “MGKSSKPIQTTQNTTQTNAPPEWAKGIFERAAKDAMSFYNQGSGKAVYDGQRVAGLSDQTKNAINGLSNNTHNYDNNYLNGLATGQNSTSQNLKNMASGHEIGNNPYFKEALQNTLNKASDTINSSLAGAGRYGSGAHTGVLADELGSIATQALSQQYNQDVNNMMQANGMIDQANQNQLASANNFFQGQGQANLNALSGGGLLDANHQQQLDEERQKWEQQNNLDWDQLSKLLAAGTASAGNYGMQTEQRTQFTPQTKLNPWQTIGNVGTILGTFAGLSDRRAKENIREAGQKKGYTLYEYNYKGSPERYRGVMAQDVLRSNPEAVFYNNTTGLLHVDYDKLGFNMERVQ”, the “soluble on expression in E. coli” value was “not soluble”.
The value for “MSLVRNSSRLLRSQLKRVQSVPVALYHENVVEHYENPRNVGSLDKKDVTVGTGLVGAPACGDVMKLQIKVDENGKIVDAKFKTFGCGSAIASSSLATEWVKGKSIDEAGKLKNTDIAKELRLPPVKLHCSMLAEDAIKAALADYKVKQQKKVAN” was “not soluble”.
Regarding “MGSDKIHHHHHHMEQKICVIGFSGGQDSTTLAVWAKKRFKKVCLVGFDYAQKHSVELECAQKIASLLQLPYEIIPLDFLENITRSALFKNSNDLIGHSHAQNKDLPNSFVPNRNAIFITLLHSYAQKLGASNIALGVSQADFSGYPDCKEDFIKSIEHALNLGSNTAIKILTPLMFLNKAQEFQMAKDLGVLDLVIKETHTCYQGERKILHAYGYGCDKCPACQLRKKGFEEFQANKK”, the “soluble on expression in E. coli” value was “not soluble”.
For the sequence “MAHHHHHHMNIVTSYFLVRKLPGTLAMGGDVLEHQNARQREYMECLRLNQQHPGVASIHLIVEGADAYEHLLKHVLCNPHFQNASTLTTSTAPASARHRRRHAAPIVPVVRFASGMPLYADFFAYANQLLSHRLTMVCNADVYLSPEHFSLSAVEDLFRQSSTLPPPHAAPCGSCQPSTADLAEREAMRPKSAPKRANPLALALTRYESDSPLDAPFLFDYRGSHDAFVLVPPVPPSFVRSVAHPQNCYKAENIVLHELQQSGYLTLNPTLGDGVRLVHRHATDLRQWFPPVDESRYGRAQPNTLAQAASRIREEARVRSLPPSV”, the “soluble on expression in E. coli” value was “not soluble”.
The value for “GPGSMFRKAESAHAAINATHLTQPTPNCGTVLHVSIAMHDEGLDDHPNDRLFIRGLPQWATKEHLRQMFAPYGVITECAVLMNPLGQCKGSGFVQFSSQQEATAAIKARDSISMDNWPNQLEVKYSESAEVRQMRQERNRNRQRHWLPSPQYRGGNTPSSLPSPYPGFSPPLSLIPSPQAFPVMNAMPFSMVYSPTPATTGAP” was “soluble”; that for “GCALNCSFCSTAKQGFNRNLSTAEIIGQVWLAARELSDNNGTHDKKITNVVMMGMGEPLLNFDNVVSAMNIMMDDLAYGLSKRRVTLSTSGVLPEMERLREVSPVALAVSLHAPTDELRNELVPINKKYPLSQLISLCKRYFKDEPRRKVTFEYVMLKGVNDQPEHASQLIKLLHNVPAKVNLIPFNPFPLTQYQRSSRETIDAFRDKLMKHGINTITRKTRG” was “not soluble”; that for “MKVRYLTSALLLAMTSGLAAAASVDIRHEYVPDRDGDEHRDRIYVSHRFDNQIGFSVEAKWNYKDGHMGNAGHETGVSYRWKATDNFSLTPGINIDASPSGASVFKYNLTGAYKINDEWDVAARIRHGYKNTDDSRYNQLNLYANRKFEWGKLGVEAEYKDIHGGEGGWKDKGHDQLIDFKGEYTKLESGVIPFFAIAAITHKGDGSEFKDEYVPRFRVGLKYNF” was “not soluble”.
On to “MMHISVGATEMSWLSSLKSVFSPSQEVKEDDVQTILQSYSLENSSFVLKDRITQINVEGRILQLTIKTFPEEADHLQQIHDELADALQKAGIQELNLHVIQQKTAPRTEPKSSSSTTSSSSHLPPVVDASASPTPDPNNPPIQKKAPIQSEVPAHPRIKNVILVSSGKGGVGKSTTTVNLALALQKQGLKVGVLDADIYGPSIPTMLGNAGRTPKIENENFVPLDAYGLAVLSIGHLTGDNNTPVAWRGPKATGALMQLFNQTLWPDLDVLVIDMPPGTGDIQLTLAQRIPVTGALIVTTPQNVALLDASKGIELFNRVGIPVVGVIENMSTHICSNCGFEEQIFGVGGGDKLSEQYDIPLLGRLPLNAQIRENADKGQPSVIAQDTAAESYQMIAQALWTRVEQLPQRARDDKRIFLEHHHHHH”, for which the “soluble on expression in E. coli” value was “not soluble”.
For “MLVNGALSTTGSFGQTVKYLQPHYNLVLFDLPFSGQSRAHNPDEMIVSKEDEVQILLQLIDLYQVNYLLSVSWGGVSALLALAQCPASVEKAIISSFSPVLNEPMLDYIDKAQVYLAAREKRKIGSLLNDTVGKHLPRLFKLYNYKHLIGLAEHEYGQIDFHISQIRTLSASNYVERFSSIKIPVLFINGEKDEYTTVEDARMFSNYIAKSSFNVVPDTGHFLDLESKAAWHHSQKTALSFLGT” the value was “not soluble”; for “MAPKTGETVVEKMEVDEAKQDVPATEPAKDLNAIAVENIKEQLAALDKGEEHLITRVLQVLPKTRKQINDNVLYKLVSSHLSSDAQFAEGMLKYLHYTPAADTEVQPMDTSNVKTKSPKKGVKPVFASPESDCYLRLLVLLHLYAQKKNTEALALGENQLTSIYNFDRRTLDGLAAKTLYFLCVIYEREGRLFDHQGFLNSRLRTATLRNFSESQAVLICWLLRCYLINRQYQSAAHLVSKVAFPDNASNNDLARYMYYQGRIKALQLDYNSAAGYFLQAQRKAPQEGAIGFKQAVQKWVVVIGLLQGEIPDRSVFRQPIYRKCLAHYLDLSRGVRDGDVARFNHNLEQFKTQFEADDTLTLIVRLRQNVIKTAIKQISLAYSRIYIKDIAKKLYITNETETEYIVAKAIADGAIDAVITSDVRDGPRYMQSSETADIYRTSEPQAHFDTRIRYCLELHNQAVKALRYPPKKKIAVETIEQAREREQQELEFAKELADEDDDDF”, “not soluble”; for “MFSCISPQKSPAFSPEQEKMLKSNRANEPQSFVKGNDAAKSDLIDLEEVVTNWAKTMFDVTKSKAEGKIKKKYLSYNINWTKLFQECSEPTYTILGAKPNVVDAKQDEKVIFKTTFTNTTQREQEYSFKTERCTRSSSTVIIEKGVCRGAEVSLKLKTPCEVVEANAGFTTEVMLNHIGENTSEEELTWGVDSCVKVPPGAETVAELVIIEDIVTRDFRIENRLSGKVLVTITNLKENNSLVTIIEGNICDIIRGMPDYTAKGFRFDGPAAIYETRGQCIFRFGIEQKVRINEFSLNSSRRY”, “not soluble”.
The value for “SLIKKVKIKKFNGRDFYDMEDYVAVEESYNIFINGEFVKSLSMSPNFLNEFAVGFAISEGFLNKIDKVEVDKNNINIFGEKNDREIKNNKNNKEIKIDIEIIKKIISYEIKAKYWEITGSFHWASMFDLKGNSIIFVEDIGRHNAVDKVIGYAILNNYNLNKLILRYSGRIPSDIVKKAINSGLNIIISKSPPTDKAIELAEENNILLIGFARNGKFNIYTSGRLWEE” was “soluble”; that for “MIIKIGTDRFWVKASNIERWAEILKSLPKKIPCSSKKDIARDYLGYKVDESGRIVNADEVYGLFGAEKDKDSLTIVGCNFIKEIEGGYELTEGAIELVERFKHNEEWEKVLGSQLLKYSIRIRTIAYAMLNGGYLYFEKGYMENFAKAYITLNDKKFYVFSSKPDEMNINSLMKENQSKILGDFWRKELDIGDGEEIEFRGVNKDYPSLGSMSTYLKIPMLLFDYLGWIVESEDGRYVLDKHKIKEDAGIDVYESLVNEADVDDIEILHKLIKEYSDARGFFPIGIVGSILKKKIDSENSMAEEQWIDHYFVTGINKGKFIIKDHEQGQPRHGRGLLGKKDYQLIKLEIRD” was “not soluble”.
Turning to “ITTKKGQEGKPAINVRTEFGFTAPTKRPEMINSAQWAELYNEASGTNYYSPEVIQKYRDHSDPDLYPDVDWFDALFDDMAENQRVNLSVTGGGDNIKYYVSGSFYNESSIYKNAGNIYGYNSAIRYNKFNFRANVDLNVTKSTTLNVNLANIYEKSFGPGFGDNDNDIWSYTFNASPNAFPVQYSDGTLSGPSTDSGHNPWNMLVHSGYREQFWNSAQSLIGLTQDFGKIWEPLEGLTANIKFSWDAWNTTLQRRSKSPSFYHARGRDAEGRLMYDDNNNDGEWDPVHTGSESLGYEIGRQGTMTRYLEGSLNYNRLFGNHRVGALFLYNQKIHTNTQAADGNAALPYKNQGLAGRVTYAFRDTYFAEVNMGYNGSENFARGHRFGFFPAFALGWMVSNEKWFEPLTKTIDMLKLKGSYGKVGNDDIGGQRRWVYESTIVGTGDQGWWFGQSGNQGGAGIRVGEIENLYASWEEATKLNLGVEFSLFNKVKVQADYFREERQGIFLQRAGLPAIVGLSTIPYVNIGRTLNKGFDANVEYNHQIGKVFLTARGNFTFSRNKLLDNDEPDWEYKYQNRIGKPFGSDGQMQPFGLVALGLFQSQEEIDNSPRQTFGEYRVGDIKYQDINGDGIIDTQDEVAIGYTNLPEIMYGFGLGAQWKNWDINAFFQGSAHTSFFLDGVSVKSPFSSGNMERAAINKDLWGKVWMSTNSPEQNAHVTYPRLSNGSGGAGASNNNKNSTWWLRNGSFLRLKNIEIGYTLPKEFVTKTFIKSLRFYVSGNNLLTFSSFKLWDPEKAKGSSDGSGYPLNRVVTVGFNANF”, the “soluble on expression in E. coli” value is reported as “not soluble”.
The value for “MIHSLFLINCSGDIFLEKHWKSVVSQSVCDYFFEAQEKAADVENVPPVISTPHHYLISIYRDKLFFVSVIQTEVPPLFVIEFLHRVADTFQDYFGECSEAAIKDNVVIVYELLEEMLDNGFPLATESNILKELIKPPTILRSVVNSITGSSNVGDTLPTGQLSNIPWRRAGVKYTNNEAYFDVVEEIDAIIDKSGSTVFAEIQGVIDACIKLSGMPDLSLSFMNPRLLDDVSFHPCIRFKRWESERVLSFIPPDGNFRLISYRVSSQNLVAIPVYVKHSISFKENSSCGRFDITIGPKQNMGKTIEGITVTVHMPKVVLNMNLTPTQGSYTFDPVTKVLTWDVGKITPQKLPSLKGLVNLQSGAPKPEENPSLNIQFKIQQLAISGLKVNRLDMYGEKYKPFKGVKYVTKAGKFQVRT” was “soluble”.
